# Results taken from patent publication US8067220B2, “Alternative crystal form of monoacylglycerol lipase (MGLL)” (Janssen Pharmaceutica N.V., priority 2008, dated 2011).
# B1: wt-MGLL.1-303: wild-type human MGLL isoform 2, amino acids 1-303, with N-terminal His tag and TEV site (protein)
# chain: MVDHHHHHHENLYFQGMPEESSPRRTPQSIPYQDLPHLVNADGQYLFCRYWKPTGTPKALIFVSHGAGEHSGRYEELARMLMGLDLLVFAHDHVGHGQSEGERMVVSDFHVFVRDVLQHVDSMQKDYPGLPVFLLGHSMGGAIAILTAAERPGHFAGMVLISPLVLANPESATTFKVLAAKVLNLVLPNLSLGPIDSSVLSRNKTEVDIYNSDPLICRAGLKVCFGIQLLNAVSRVERALPKLTVPFLLLQGSADRLCDSKGAYLLMELAKSQDKTLKIYEGAYHVLHKELPEVTNSVFHEINMWVSQRTATAGTASPP
# modifications: N-terminal His tag and TEV site
# notes: wild-type human MGLL isoform 2, amino acids 1-303, with N-terminal His tag and TEV site
# B2: mut-MGLL. 1-303, L169S, L176S: human MGLL 1-303 with cap-domain mutations L169S, L176S (protein)
# chain: GMPEESSPRRTPQSIPYQDLPHLVNADGQYLFCRYWKPTGTPKALIFVSHGAGEHSGRYEELARMLMGLDLLVFAHDHVGHGQSEGERMVVSDFHVFVRDVLQHVDSMQKDYPGLPVFLLGHSMGGAIAILTAAERPGHFAGMVLISPLVLANPESATTFKVLAAKVLNSVLPNLSSGPIDSSVLSRNKTEVDIYNSDPLICRAGLKVCFGIQLLNAVSRVERALPKLTVPFLLLQGSADRLCDSKGAYLLMELAKSQDKTLKIYEGAYHVLHKELPEVTNSVFHEINMWVSQRTATAGTASPP
# B3: mut-MGLL.1-303, L169S, L176S, K160A: human MGLL 1-303 with L169S, L176S and surface mutation K160A (protein)
# chain: MPEESSPRRTPQSIPYQDLPHLVNADGQYLFCRYWKPTGTPKALIFVSHGAGEHSGRYEELARMLMGLDLLVFAHDHVGHGQSEGERMVVSDFHVFVRDVLQHVDSMQKDYPGLPVFLLGHSMGGAIAILTAAERPGHFAGMVLISPLVLANPESATTFAVLAAKVLNSVLPNLSSGPIDSSVLSRNKTEVDIYNSDPLICRAGLKVCFGIQLLNAVSRVERALPKLTVPFLLLQGSADRLCDSKGAYLLMELAKSQDKTLKIYEGAYHVLHKELPEVTNSVFHEINMWVSQRTATAGTASPP
# B4: mut-MGLL 1-303, L169S, L176S, K36A, K226A: human MGLL 1-303 with L169S, L176S and surface mutations K36A, K226A (protein)
# chain: MPEESSPRRTPQSIPYQDLPHLVNADGQYLFCRYWAPTGTPKALIFVSHGAGEHSGRYEELARMLMGLDLLVFAHDHVGHGQSEGERMVVSDFHVFVRDVLQHVDSMQKDYPGLPVFLLGHSMGGAIAILTAAERPGHFAGMVLISPLVLANPESATTFKVLAAKVLNSVLPNLSSGPIDSSVLSRNKTEVDIYNSDPLICRAGLKVCFGIQLLNAVSRVERALPALTVPFLLLQGSADRLCDSKGAYLLMELAKSQDKTLKIYEGAYHVLHKELPEVTNSVFHEINMWVSQRTATAGTASPP
# B5: mut-MGLL.1-303, L169S, L176S, K165A: human MGLL 1-303 with L169S, L176S and surface mutation K165A (protein)
# chain: MPEESSPRRTPQSIPYQDLPHLVNADGQYLFCRYWKPTGTPKALIFVSHGAGEHSGRYEELARMLMGLDLLVFAHDHVGHGQSEGERMVVSDFHVFVRDVLQHVDSMQKDYPGLPVFLLGHSMGGAIAILTAAERPGHFAGMVLISPLVLANPESATTFKVLAAAVLNSVLPNLSSGPIDSSVLSRNKTEVDIYNSDPLICRAGLKVCFGIQLLNAVSRVERALPKLTVPFLLLQGSADRLCDSKGAYLLMELAKSQDKTLKIYEGAYHVLHKELPEVTNSVFHEINMWVSQRTATAGTASPP
# B6: mut-MGLL 1-303, L169S, L176S, K226A: human MGLL 1-303 with L169S, L176S and surface mutation K226A (protein)
# chain: MPEESSPRRTPQSIPYQDLPHLVNADGQYLFCRYWKPTGTPKALIFVSHGAGEHSGRYEELARMLMGLDLLVFAHDHVGHGQSEGERMVVSDFHVFVRDVLQHVDSMQKDYPGLPVFLLGHSMGGAIAILTAAERPGHFAGMVLISPLVLANPESATTFKVLAAKVLNSVLPNLSSGPIDSSVLSRNKTEVDIYNSDPLICRAGLKVCFGIQLLNAVSRVERALPALTVPFLLLQGSADRLCDSKGAYLLMELAKSQDKTLKIYEGAYHVLHKELPEVTNSVFHEINMWVSQRTATAGTASPP
# Tests used:
# MGLL [1] = assay: Hydrolysis of coumarin arachidonate (C-A), apparent kcat/KM at [S]<<KM; assay type: biochemical, human; conditions: estimated; limited by solubility of C-A
# From the text: (§1) A small fluorescent substrate, 4-methyl coumarin butyrate (4MC-B) was used to compare the activity of the engineered mutants to the activity of wt-MGLL (hMGLL 1-303) (SEQ ID NO: 3). The catalytic efficiency (kcat/KM) for the hydrolysis of the 4MC-B was similar for wt-MGLL (hMGLL 1-303) (SEQ ID NO: 3) and all MGLL mutants tested (Table 2). A larger more aliphatic fluorescent substrate, Coumarin Arachidonate (C-A), structurally more closely related to the MGLL natural substrate, 2-AG, was used to compare the activity of wt-MGLL (hMGLL 1-303) (SEQ ID NO: 3) to TEV protease cleaved mut-MGLL (hMGLL 1-303 L169S, L176S) (SEQ ID NO: 5).
# (§2) The Michaelis-Menten parameters for the hydrolysis of 4-methylcoumarin butyrate (4MC-B) and coumarin arachidonate (C-A) substrate were determined using 4-5 nM of MGLL in 20 mM Pipes pH 7 and 150 mM NaCl at 37° C. The change in fluorescence due to substrate hydrolysis was monitored using excitation/emission wavelengths of 335/440 in a Safire II instrument from Tecan. The hyperbolic rates versus substrate concentration curves for the hydrolysis of 4MC-B were fit to the Michaelis-Menten equation using Excel.
# The apparent kcat/Km ratio for the hydrolysis of C-A was determined at [S]<<KM. […] The kcat/KM values reported are the average from independent values determined from five substrate concentrations ranging from 700 to 40 nM.
# MGLL [2] = assay: Thermofluor thermal stability assay; assay type: physicochemical, human; conditions: Thermofluor, 1,8-ANS; for midpoint of the melting transition (Tm): 0.05 mg/ml protein, Pipes pH 7
# From the text: (§3) Thermofluor® assays detect small changes in the intrinsic melting temperature of proteins based on binding of ligands. Compounds that interact preferentially with the native form of the protein will increase the Tm, the temperature at which half of the protein is unfolded (Pantoliano et al. 2001). The technique monitors changes in the fluorescent intensity of dyes such as 1-anilinonaphthalene-8-sulfonic acid (1,8-ANS). The fluorescent dyes are quenched in aqueous environments but increase in fluorescence on binding to the hydrophobic core of denatured proteins.
# as §3, with “The Thermofluor®” for “Thermofluor®”, “assay is a powerful tool to screen for small molecule inhibitors interacting with a protein's active site or allosteric site. The assay detects” for “assays detect”
# Thermofluor® assays were conducted to characterize wt-MGLL (hMGLL 1-303) (SEQ ID NO: 3) and mut-MGLL (hMGLL 1-303 L169S, L176S) and evaluate if the MGLL mutants could be used for high-throughput screening using Thermofluor®. Three microliters of protein at a concentration of 0.05 mg/ml in 50 mM Pipes pH 7, 200 mM NaCl, 100 μM 1,8-ANS, and 0.001% Tween was added to pre-dispensed compound plates. Wells were overlaid with silicone oil (1 μL, Fluka, type DC 200) to prevent evaporation. Final compound concentrations varied from 150 to 0.15 μM. Assay plates were heated at a rate of 1° C./min for all experiments over a temperature range sufficient to measure protein unfolding. Fluorescence was measured by continuous illumination with UV light (Hamamatsu LC6) supplied via fiber optic and filtered through a custom band-pass filter (380-400 nm; >6 OD cutoff). Fluorescence emission was detected by measuring light intensity using a CCD camera (Sensys, Roper Scientific) filtered to detect emission at 500±25 nm, resulting in simultaneous and independent readings of all 384 wells. One or more images were collected at each temperature, and the sum of the pixel intensity in a given area of the assay plate was recorded vs temperature, and fit to standard equations to yield the Tm.
# [3] = Size exclusion chromatography of protein purified in the absence of detergent; assay type: physicochemical
# Protocol: A pilot purification of wt-MGLL (hMGLL 1-303) (SEQ ID NO: 3), performed in the complete absence of detergent, generated no protein (data not shown). A second purification of wt-MGLL (hMGLL 1-303) (SEQ ID NO: 3) was done with detergent in the lysis buffer only. Frozen cell pellets for wt-MGLL (hMGLL 1-303) (SEQ ID NO: 3) were thawed, resuspended, and lysed in Bugbuster® lysis buffer for 1 hour at 4° C. Bugbuster® lysis buffer is a proprietary lysis buffer from […] that contains detergent. The lysate was clarified by centrifugation at 40,000×g for 1 hr. No detergent was added at this point or during the rest of the purification. From this point forward, the purification protocol and buffers were the same as described below for mut-MGLL. An average of 2.2 mg of wt-MGLL (hMGLL 1-303) (SEQ ID NO: 3) per liter of cell culture was obtained.
# Mutant MGLL (mut-MGLL) constructs were purified in the absence of detergent. […] Fractions were analysed by SDS-PAGE. […] Purification yields were determined by Bradford assay using the protein assay kit from BioRad according to manufacturer's instruction with BSA as a standard (Bradford 1976).
# MGLL [4] = assay: Michaelis-Menten kinetics, hydrolysis of 4-methylcoumarin butyrate (4MC-B); assay type: biochemical, human; conditions: substrate 4MC-B; 4-5 nM MGLL, 20 mM Pipes pH 7, 150 mM NaCl, 37° C.; average of 2 or 4 assays
# From the text: as §1, §2
# [5] = Circular dichroism (CD) structural analysis; assay type: physicochemical; conditions: 5 μM protein, 10 mM cacodylic acid pH 7, 140 mM NaCl, 200 to 260 nm
# Protocol: Circular dichroism experiments were performed on a Circular Dichroism Spectrometer Model 202 from Aviv Instruments Inc. The CD scans of wt-MGLL (hMGLL 1-303) (SEQ ID NO: 3) and TEV protease cleaved mut-MGLL (hMGLL 1-303 L169S, L176S) (SEQ ID NO: 5) (5 μM protein in 10 mM cacodylic acid pH 7 and 140 mM NaCl) were measured from 200 to 260 nm. Temperature melts were monitored at 210 nm.
Molecule,Km (MGLL [1]),quality of Thermofluor melting transition (MGLL [2]),midpoint of the melting transition (Tm) (MGLL [2]),aggregation by size exclusion [3],Kcat (MGLL [4]),Km (MGLL [4]),monomer by size exclusion [3],CD scan compared with wt-MGLL purified in the presence of detergent [5]
"CCCCC/C=C/C/C=C\C/C=C/C/C=C/CCCC(=O)Oc1ccc2ccc(=O)oc2c1 [C-A, Coumarin Arachidonate]",> 30 µM,,,,,,,
B1,,very poor transition,58 °C,100%,1.13 s⁻¹,162 µM,,
B2,,strong transition,56.7 °C,,0.8 s⁻¹,136 µM,90%,similar
B3,,,,,0.5 s⁻¹,90 µM,,
B4,,,,,0.5 s⁻¹,123 µM,,
B5,,,,,0.45 s⁻¹,137 µM,,
B6,,,,,0.633 s⁻¹,110 µM,,
